Measured values taken from the supplement of paper PMC9170038.

Experiments:
MS2 coat protein [1] = experiment: apparent KD of MS2 coat protein; designed switch direction (-1 OFF switch, 1 ON switch): 1; higher = weaker reporter binding
How it was run: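 Transcription of designed RNA switches on Illumina chips was done by stalled E. coli RNA polymerase. SNAP-549-labelled MS2 coat protein was then titrated in doubling steps from 0.7 or 1.5 nM to 3 µM, with steps of 0.8–1.5 h at the lowest and 10–20 min at the highest concentration. The per-design median over clusters of curve-fitted normalised fluorescence is reported as apparent KD.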

MS2 coat protein [2] = experiment: apparent KD of MS2 coat protein; higher = weaker reporter binding; details: Eterna round: R107
How it was run: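 Designed RNA switches were made by on-chip transcription from Illumina sequencing clusters and then titrated with SNAP-549-labelled MS2 coat protein. Twofold steps ran from 0.7 or 1.5 nM to 3 µM, each lasting 0.8–1.5 h early and 10–20 min late, in 100 mM Tris-HCl pH 7.5, 80 mM KCl, 4 mM MgCl2, without or with constant ligand. Apparent KD is the per-design median of normalised cluster binding-curve fits.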

[3] = input ligand: microRNA oligo, concentration not stated
[4] = input ligand: theophylline 20 uM
[5] = input ligand: theophylline 2 mM
[6] = input ligand: tryptophan 2.4 mM

GUUACAUGAGGAUCACCCAUGUAUGUGUGGGAGUAAGUGUCUUAGGAUAUCUGUUAUUGAAUUUAAGAGAAGGAAGAUUGUUGU [JMF's solution 37] (Eterna round: R96, puzzle: Same State NG 3)
apparent KD of MS2 coat protein (MS2 coat protein [1]; input ligand: FMN 200 uM): 102 nM
apparent KD of MS2 coat protein (MS2 coat protein [1]; [3]): 59.5 nM
apparent KD of MS2 coat protein (MS2 coat protein [1]; input ligand: none): 100 nM

GGAACACAUGAGGAUCACCCAUGUCAAGGAGGUCGAGGAUAUAGGAAAAAAAAAAAAAAAUUAGAAGGUGAGGAGG [V1] (Eterna round: R96, puzzle: Same State 1)
apparent KD of MS2 coat protein (MS2 coat protein [1]; input ligand: FMN 200 uM): 270 nM
apparent KD of MS2 coat protein (MS2 coat protein [1]; [3]): 166 nM
apparent KD of MS2 coat protein (MS2 coat protein [1]; input ligand: none): 275 nM

GGUGGGUUACUACCAACACAUGAGGAUCACCCAUGUUUUGGGAAGGAUAUGGUACCUAUUUGGUACCAGAAGGUCCUGUUGGUG [salish99_SSNG3_r04_706] (Eterna round: R96, puzzle: Same State NG 3)
apparent KD of MS2 coat protein (MS2 coat protein [1]; input ligand: FMN 200 uM): 36.6 nM
apparent KD of MS2 coat protein (MS2 coat protein [1]; [3]): 105 nM
apparent KD of MS2 coat protein (MS2 coat protein [1]; input ligand: none): 116 nM

AACAUGAGGAUCACCCAUGUGUCCUCGAAACGAGGACCGGUACGGCCGCCACUCGAAGCAUGUUGACGAAAAGUCAGCAUGCAAA [Mat - Exclusion - Trytophan A - D14]
apparent KD of MS2 coat protein (MS2 coat protein [2]; input ligand: arginine 13.2 mM): 96.4 nM
apparent KD of MS2 coat protein (MS2 coat protein [2]; [4]): 292 nM
apparent KD of MS2 coat protein (MS2 coat protein [2]; [5]): 353 nM

AUUACAUGAGCAUCAGCACAUGAGGAUCACCGAGGACCGGUACGGCCGCCACUCGACACAUGAGGAUCACCCAUGUGUUGUUGUU [Exclusion Tryptophan A 3]
apparent KD of MS2 coat protein (MS2 coat protein [2]; input ligand: arginine 13.2 mM): 24.6 nM
apparent KD of MS2 coat protein (MS2 coat protein [2]; [4]): 345 nM
apparent KD of MS2 coat protein (MS2 coat protein [2]; [5]): 281 nM

GUACACAUGAGGAUCACCCAUGUACUGGUACGAGGACCGGUACGGCCGCCACUCGCCGAGAUUCAUAACACAUCAGAAAGCUCAC [theeternabot_sameState_MS2_Trp_A_45]
apparent KD of MS2 coat protein (MS2 coat protein [2]; input ligand: arginine 13.2 mM): 13.5 nM
apparent KD of MS2 coat protein (MS2 coat protein [2]; [4]): 27.6 nM
apparent KD of MS2 coat protein (MS2 coat protein [2]; [5]): 18.8 nM

AAAUGAAGGCGAAGGAGCGCGAACAUGAGGAUCACCCAUGUGUAUGUAUGUAGUCAUGUAUCGCAGGUAGGUCGCGCUGUUACAU [Exclusion Arginine B]
apparent KD of MS2 coat protein (MS2 coat protein [2]; input ligand: arginine 13.2 mM): 106 nM
apparent KD of MS2 coat protein (MS2 coat protein [2]; input ligand: none): 278 nM
apparent KD of MS2 coat protein (MS2 coat protein [2]; [4]): 276 nM
apparent KD of MS2 coat protein (MS2 coat protein [2]; [5]): 352 nM
apparent KD of MS2 coat protein (MS2 coat protein [2]; [6]): 271 nM

CAGUCUCUAGCGGCCGCCACUGUUCUGCUGGUGCUGCUGAACGAACAUGAGGAUCACCCAUGUCUCAGGACCGGGCUUCAGACUC [theeternabot_sameState_MS2_Trp_B_44]
apparent KD of MS2 coat protein (MS2 coat protein [2]; input ligand: arginine 13.2 mM): 22.4 nM
apparent KD of MS2 coat protein (MS2 coat protein [2]; [4]): 30.4 nM
apparent KD of MS2 coat protein (MS2 coat protein [2]; [5]): 33.3 nM

AGGACAUCGAGAAGGAGCGCAUCCAAACCACACAUGAGGAUCACCCAUGUAUAAAUAUGCAUGCAGGUAGGUCGCUCGGCGUCUU [Leanerin]
apparent KD of MS2 coat protein (MS2 coat protein [2]; input ligand: arginine 13.2 mM): 57.5 nM
apparent KD of MS2 coat protein (MS2 coat protein [2]; input ligand: none): 99 nM
apparent KD of MS2 coat protein (MS2 coat protein [2]; [4]): 121 nM
apparent KD of MS2 coat protein (MS2 coat protein [2]; [5]): 85.7 nM
apparent KD of MS2 coat protein (MS2 coat protein [2]; [6]): 87.4 nM

AACAUCACAACGGCCGCCACUGCACAUGACAACAUGAGGAUCACCCAUGUGGAUCACCCAUGUCCCAGGACCGGGUUAUGAGGAU [Same State - Tryptophan B #1]
apparent KD of MS2 coat protein (MS2 coat protein [2]; input ligand: arginine 13.2 mM): 23.7 nM
apparent KD of MS2 coat protein (MS2 coat protein [2]; [4]): 39.9 nM
apparent KD of MS2 coat protein (MS2 coat protein [2]; [5]): 33.6 nM

GCGGACAUGAGGAUCACCCAUGUAAAUCCUCGAGGACCGGUACGGCCGCCACUCGAACGAGUGGCGCGCGCGCGCGCGCGCGCGC [aAa]
apparent KD of MS2 coat protein (MS2 coat protein [2]; input ligand: arginine 13.2 mM): 25.3 nM
apparent KD of MS2 coat protein (MS2 coat protein [2]; input ligand: none): 40.5 nM
apparent KD of MS2 coat protein (MS2 coat protein [2]; [4]): 119 nM
apparent KD of MS2 coat protein (MS2 coat protein [2]; [5]): 78.9 nM
apparent KD of MS2 coat protein (MS2 coat protein [2]; [6]): 45.2 nM

AAGGUAUCACAGAGGUGAUUCAACUGUGAUACCAGCUAGGAAACUAGCCCUUGGCAGCACAUGAGGAUCACCCAUGUAAGAAUAA [(T)'-(M)'-(T1)-(T2)-(M1)-(M2)_Design3_2/19/17]
apparent KD of MS2 coat protein (MS2 coat protein [2]; input ligand: arginine 13.2 mM): 36.3 nM
apparent KD of MS2 coat protein (MS2 coat protein [2]; input ligand: none): 36.5 nM
apparent KD of MS2 coat protein (MS2 coat protein [2]; [4]): 33.6 nM
apparent KD of MS2 coat protein (MS2 coat protein [2]; [5]): 128 nM
apparent KD of MS2 coat protein (MS2 coat protein [2]; [6]): 37.1 nM

AAACGAGAGACAGAUACCAGCGCAGGAACGGAGUAUGGUGACAUGAGGAUCACCCAUGUGCGCCCUUGGCAGCUGAGCCGUAUUG [theeternabot_exclusion_MS2_Theo_B_37]
apparent KD of MS2 coat protein (MS2 coat protein [2]; input ligand: arginine 13.2 mM): 30 nM
apparent KD of MS2 coat protein (MS2 coat protein [2]; [4]): 43.3 nM
apparent KD of MS2 coat protein (MS2 coat protein [2]; [6]): 33.5 nM

GCCAUCGGCGGAAGCCGAUGGGAUACAGAAGGAGCGCGGAUUAACGCAGGUAGGUCGCUGGACAUGAGGAUCACCCAUGUAAUAG [SSAA #9]
apparent KD of MS2 coat protein (MS2 coat protein [2]; input ligand: arginine 13.2 mM): 19.2 nM
apparent KD of MS2 coat protein (MS2 coat protein [2]; input ligand: none): 22.8 nM
apparent KD of MS2 coat protein (MS2 coat protein [2]; [4]): 41.9 nM
apparent KD of MS2 coat protein (MS2 coat protein [2]; [5]): 22.5 nM
apparent KD of MS2 coat protein (MS2 coat protein [2]; [6]): 18.5 nM
